Test system: DNA dMTase
Assay: Demethylation of [mdC32pdG]n substrate (conversion of mdCMP to dCMP) with additives or pretreatment
Type: biochemical, human
Conditions: transformation of mdC to C or release of volatile methyl residues; proteinase K 200 μg/ml 1 h 56° C.; RNase A 100 μg/ml
Protocol: (A) To assay the conversion of methyl-dCMP (mdCMP) to dCMP we used a previously described method (Szyf et al., 1995). Briefly, α^32P labeled, fully methylated poly[mdC^32PdG]n substrate was prepared as follows. One hundred ng of a double-stranded fully methylated (mdCpdG) oligomer (Pharmacia) were denatured by boiling, which was followed by partial annealing at room temperature. The complementary strand was extended with Klenow fragment (Boehringer Mannheim) using methyl-5-dCTP (mdCTP, 0.1 mM) (Boehringer Mannheim) and […] (100 μCi, 3000 Ci/mmol), and the unincorporated nucleotides were removed by chromatography through a NAP-5 column (Pharmacia). The NAP-5 chromatography was repeated to exclude minor contamination with unincorporated nucleotides. […] The digestion products were loaded onto a thin layer chromatography plate (TLC) (Kodak, 13255 Cellulose), separated in a medium containing, 132 ml Isobutyric acid:40 ml water:4 ml ammonia solution, autoradiographed and the intensity of the different spots was determined using a phosphorimager (Fuji, BAS 2000). ^32P labeled substrates and tritium labeled substrates were phosphoimaged using BAS 2000 plate and BAS-TR2040 phosphorimager plate respectively. (B) The second method determined removal of methylated residues from methylated DNA by measuring disappearance of ^3H—CH3 or ^14C—CH3 from the reaction mixture. […]

B1: RNase: RNase A (Sigma) used to treat column fractions (protein, UniProt P61823 27-150, looked up)
Ribonuclease pancreatic: KETAAAKFERQHMDSSTSAASSSNYCNQMMKSRNLTKDRCKPVNTFVHESLADVQAVCSQKNVACKNGQTNCYQSYSTMSITDCRETGSSKYPNCAYKTTQANKHIIVACEGNPYVPVHFDASV
DNA dMTase activity after enzyme treatment: not inhibited but rather enhanced

B2: proteinase K: proteinase K (Sigma) used to pretreat DNA dMTase (protein, UniProt P06873 106-384, looked up)
Proteinase K: AAQTNAPWGLARISSTSPGTSTYYYDESAGQGSCVYVIDTGIEASHPEFEGRAQMVKTYYYSSRDGNGHGTHCAGTVGSRTYGVAKKTQLFGVKVLDDNGSGQYSTIIAGMDFVASDKNNRNCPKGVVASLSLGGGYSSSVNSAAARLQSSGVMVAVAAGNNNADARNYSPASEPSVCTVGASDRYDRRSSFSNYGSVLDIFGPGTSILSTWIGGSTRSISGTSMATPHVAGLAAYLMTLGKTTAASACRYIADTANKGDLSNIPFGTVNLLAYNNYQA
DNA dMTase activity after enzyme treatment: abolished

From US7098012B1, “DNA demethylase, therapeutic and diagnostic uses thereof” (McGill University, priority 1997, dated 2006)
